Laboratory results taken from paper PMC6016253, “The ICP27 Homology Domain of the Human Cytomegalovirus Protein UL69 Adopts a Dimer-of-Dimers Structure” (mBio, 2018).

Target: the molecule itself
Test: SEC-MALS; 0.5 ml at 1 mg/ml on Superdex 200 10/300 GL, 0.75 ml/min; 20 mM HEPES, 150 mM NaCl, 50 mM L-Arg, 50 mM L-Glu, 1 mM TCEP, pH 7.9

Protein | stoichiometry N
UL69long (HCMV UL69 residues 200 to 540) (domain or fragment, UL69 of human cytomegalovirus (HCMV), 744 amino acids; residues 200 to 540: ICP27 homology domain plus an N-terminal region conserved only in betaherpesviruses; gene synthesis, codon optimized; HRV3C protease-cleavable N-terminal thioredoxin tag plus Strep-tag; also called UL69 tetramer; not shown: thioredoxin, N-terminal, cleaved) GPQQQQMLALIDDELDAMDEDELQQLSRLIEKKKRARLQRGAASSGTSPSSTSPVYDLQRYTAESLRLAPYPADLKVPTAFPQDHQPRGRILLSHDELMHTDYLLHIRQQFDWLEEPLLRKLVVEKIFAVYNAPNLHTLLAIIDETLSYMKYHHLHGLPVNPHDPYLETVGGMRQLLFNKLNNLDLGCILDHQDGWGDHCSTLKRLVKKPGQMSAWLRDDVCDLQKRPPETFSQPMHRAMAYVCSFSRVAVSLRRRALQVTGTPQFFDQFDTNNAMGTYRCGAVSDLILGALQCHECQNEMCELRIQRALAPYRFMIAYCPFDEQSLLDLTVFAGTTTTTA | 4
UL69short (HCMV UL69 residues 248 to 536) (domain or fragment, UL69 of human cytomegalovirus (HCMV), 744 amino acids; residues 248 to 536: ICP27 homology domain only; gene synthesis, codon optimized; HRV3C protease-cleavable N-terminal thioredoxin tag plus Strep-tag; not shown: thioredoxin, N-terminal, cleaved) PSSTSPVYDLQRYTAESLRLAPYPADLKVPTAFPQDHQPRGRILLSHDELMHTDYLLHIRQQFDWLEEPLLRKLVVEKIFAVYNAPNLHTLLAIIDETLSYMKYHHLHGLPVNPHDPYLETVGGMRQLLFNKLNNLDLGCILDHQDGWGDHCSTLKRLVKKPGQMSAWLRDDVCDLQKRPPETFSQPMHRAMAYVCSFSRVAVSLRRRALQVTGTPQFFDQFDTNNAMGTYRCGAVSDLILGALQCHECQNEMCELRIQRALAPYRFMIAYCPFDEQSLLDLTVFAGTT | 2
